Consider one substance from publication PMC2736913.

In this test the target is Protein encoded by the control plasmid pGBKT7-53. Briefly: two-hybrid.

As for “Protein encoded by the control plasmid pGADT7-T (domain or fragment)”, the α-gal activity, fold over baseline (fold over baseline) is above 35000.
